Results reported in patent US20070060521.

What was measured:
[1] = tested on: purified baculovirus-expressed STAT3β
[2] = tested on: purified baculovirus-expressed STAT3 (full-length)

Substance	in vitro phosphorylation of STAT3b (32P-ATP, SDS-PAGE, autoradiography) [1]	in vitro phosphorylation of STAT3 (32P-ATP, SDS-PAGE, autoradiography) [2]
purified ERKs protein kinases (BIOMOL)	STAT3b does not undergo serine phosphorylation by any of the MAPKs	STAT3 phosphorylation by ERK, however, is minimal compared to levels achieved for JNK and p38
purified JNK protein kinase (BIOMOL)	STAT3b does not undergo serine phosphorylation by any of the MAPKs	p38 and JNK can effectively phosphorylate STAT3 in vitro
purified p38 protein kinase (AG Scientific)	STAT3b does not undergo serine phosphorylation by any of the MAPKs	p38 and JNK can effectively phosphorylate STAT3 in vitro
